Experimental data reported in patent US20040052799.

Target: T1, N-succinyl-Ala-Ala-Pro-Phe-p-nitroanilide
T1 chain: AAPF

B1: Recombinant H. pylori peptidyl-prolyl cis-trans isomerase (ppiB), His-tagged (protein)
chain: FIAIIEHLNDKSLSQRFMMKPIKTYDIKEEELAKTAYATIKTNKGNITLELFYKDAPQAVSNFVTLAKEGFYNGLNFHRVIAGFVAQGGCPYGTGTGGPEHRIKCEVAHNPNKHQRGSISMAHAGRDTGGSQFFLCFVDLPHLDGEHTVFGKITSAESLSVLDKIKQGDIIESVVFSPSL
  kcat: This corresponds to a kcat of 1.6 sec^-1
